One assay deals with T1, GST-Rtt109 (S. cerevisiae, UniProt Q07794 1-436).
T1 sequence (looked up): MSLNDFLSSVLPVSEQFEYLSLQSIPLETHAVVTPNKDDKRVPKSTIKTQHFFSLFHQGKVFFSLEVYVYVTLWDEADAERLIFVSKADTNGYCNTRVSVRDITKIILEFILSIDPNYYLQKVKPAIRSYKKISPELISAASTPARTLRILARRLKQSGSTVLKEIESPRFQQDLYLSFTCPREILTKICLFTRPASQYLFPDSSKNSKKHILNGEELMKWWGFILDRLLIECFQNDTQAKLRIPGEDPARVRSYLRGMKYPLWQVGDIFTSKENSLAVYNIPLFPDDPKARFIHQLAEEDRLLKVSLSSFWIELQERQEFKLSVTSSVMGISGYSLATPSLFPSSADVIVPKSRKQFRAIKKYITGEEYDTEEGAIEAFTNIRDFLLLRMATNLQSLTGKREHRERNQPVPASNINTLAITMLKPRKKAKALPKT
The experiment in a line: pull-down.

The target of a further assay is T2, GST-Kap60 (S. cerevisiae, UniProt Q02821 1-542).
T2 sequence (looked up): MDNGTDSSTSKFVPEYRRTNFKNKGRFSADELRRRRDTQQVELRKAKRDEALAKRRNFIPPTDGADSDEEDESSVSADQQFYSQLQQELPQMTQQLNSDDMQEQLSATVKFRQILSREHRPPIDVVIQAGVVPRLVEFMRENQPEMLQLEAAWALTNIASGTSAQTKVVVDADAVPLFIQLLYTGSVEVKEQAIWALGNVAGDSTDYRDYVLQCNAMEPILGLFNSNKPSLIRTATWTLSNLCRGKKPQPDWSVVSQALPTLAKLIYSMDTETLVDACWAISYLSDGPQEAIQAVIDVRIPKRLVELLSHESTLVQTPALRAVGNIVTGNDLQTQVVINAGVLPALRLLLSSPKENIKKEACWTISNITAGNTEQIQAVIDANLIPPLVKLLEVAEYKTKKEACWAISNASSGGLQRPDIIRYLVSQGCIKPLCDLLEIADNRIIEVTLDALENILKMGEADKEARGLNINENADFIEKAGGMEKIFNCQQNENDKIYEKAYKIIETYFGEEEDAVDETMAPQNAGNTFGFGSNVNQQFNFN
As to the kind of experiment: pull-down.

B1: MBP-Vps75(1–222) (domain or fragment, S. cerevisiae, UniProt P53853 1-222, looked up)
chain: MMSDQENENEHAKAFLGLAKCEEEVDAIEREVELYRLNKMKPVYEKRDAYIDEIAEFWKIVLSQHVSFANYIRASDFKYIDTIDKIKVDWLALESEMYDTRDFSITFHFHGIEGDFKEQQVTKVFQIKKGKDDQEDGILTSEPVPIEWPQSYDSINPDLIKDKRSPEGKKKYRQGMKTIFGWFRWTGLKPGKEFPHGDSLASLFSEEIYPFCVKYYAEAQRD
Consider B1, for which the binding result with GST-Rtt109 is recorded as “binds”.

B2: MBP-Vps75 wild type (natural protein, S. cerevisiae, UniProt P53853 1-264, looked up)
chain: MMSDQENENEHAKAFLGLAKCEEEVDAIEREVELYRLNKMKPVYEKRDAYIDEIAEFWKIVLSQHVSFANYIRASDFKYIDTIDKIKVDWLALESEMYDTRDFSITFHFHGIEGDFKEQQVTKVFQIKKGKDDQEDGILTSEPVPIEWPQSYDSINPDLIKDKRSPEGKKKYRQGMKTIFGWFRWTGLKPGKEFPHGDSLASLFSEEIYPFCVKYYAEAQRDLEDEEGESGLSADGDSEDDDGSLGEVDLPLSDEEPSSKKRKV
For B2, the binding result with GST-Kap60 and in the assay with GST-Rtt109 was “binds” each time.

B3: MBP-Vps75(K260G, K261G) (natural protein, S. cerevisiae, UniProt P53853 1-264, looked up)
chain: MMSDQENENEHAKAFLGLAKCEEEVDAIEREVELYRLNKMKPVYEKRDAYIDEIAEFWKIVLSQHVSFANYIRASDFKYIDTIDKIKVDWLALESEMYDTRDFSITFHFHGIEGDFKEQQVTKVFQIKKGKDDQEDGILTSEPVPIEWPQSYDSINPDLIKDKRSPEGKKKYRQGMKTIFGWFRWTGLKPGKEFPHGDSLASLFSEEIYPFCVKYYAEAQRDLEDEEGESGLSADGDSEDDDGSLGEVDLPLSDEEPSSGGRKV
B3: the binding result in the assay with GST-Rtt109 was “binds”.

The values above are taken from paper PMC3115401 (Traffic (Copenhagen, Denmark), 2011).
